Assay [1] deals with T1, human TSLP antigen tagged with Flag (hTSLP-Flag) (human, UniProt Q969D9 29-159, limits assumed). As to the kind of experiment: cell-based or functional assay.
In assay [2] the target is T1, human TSLP antigen tagged with Flag …. In words: SPR, Biacore T200, antibody captured on Protein A chip, hTSLP-Flag as analyte. A general note: SPR reads the build-up and loss of mass on a sensor chip optically.
The target of assay [3] is T2, TSLP-flag-Biotin (human, UniProt Q969D9 29-159, limits assumed, biotin label, site not stated).
T2 construct: the labelling is not described; also called biotinylated TSLP-flag
In words: competition ELISA by the method of Example 5: blocks TSLP-flag-Biotin binding to coated TSLPR-ECD-hFc. In general terms: In an ELISA, binding on a coated surface is turned into a signal by an enzyme label.

B1: humanized anti-human TSLP antibody 163H (antibody, human IgG1, kappa, V domains shown)
VH: EVQLVESGGGLVQPGGSLRLSCAASGFTFSSFGMHWVRQAPGKGLEWVSYISSGSSNIYYADTVKGRFTISRDNAKNSLYLQMNSLRAEDTAVYYCARDGGSRRHYYVMDYWGQGTLVTVSS
VL: EIVLTQSPATLSLSPGERATLSCKASQDVSPAVAWYQQKPGQSPRLLIYSASYRYTGVPARFSGSGSGTDFTLTISSLEPEDFAVYYCQQHYSSPFTFGQGTKLEIKR
notes: Humanized, human IgG1 constant region
A word on the Kd: it is the concentration at which binding is half-saturated. Broadly, the koff is the first-order rate constant of dissociation. High values mean fast dissociation, low ones slow dissociation. The term kon denotes the second-order rate constant of association. The IC50 is the midpoint of a concentration-inhibition curve. A lower IC50 goes with greater potency in that assay. In the case of B1, in assay [1], the “IC50 of inhibition of TSLP-dependent STAT5 activation (luciferase, IL-7R/TSLPR-BaF3-Luc (STAT5) cells, TSLP-flag stimulus)” value is 0.378 µg/mL. In assay [2], this molecule returned a Kd of 0.0513 nM, a koff of 0.000302 s⁻¹ and a kon of 5.89e+06 M⁻¹ s⁻¹. The molecule also returned an IC50 in assay [3] of 0.159 µg/mL.

B2: humanized anti-human TSLP antibody 111H (antibody, human IgG1, kappa, V domains shown)
VH: EVQLVESGGGLVQPGGSLRLSCSVSGFSLTYSGVNWVRQAPGKGLEWLGAIWGDGSTNYHSALISRLTISKDNSKSTVYLQMNSLRAEDTAVYYCAKPDGYSGIFAYWGQGTLVTVSS
VL: EIVLTQSPGTLSLSPGERATLSCSASSSLSSNYLHWYQQKPGQAPRLLIYRTSNLASGVPDRFSGSGSGTDFTLTISRLEPEDFAVYYCQQGSGILVTFGQGTKLEIKR
notes: Humanized, human IgG1 constant region; also called humanized antibody No. 111
As to B2, the “IC50 of inhibition of TSLP-dependent STAT5 activation (luciferase, IL-7R/TSLPR-BaF3-Luc (STAT5) cells, TSLP-flag stimulus)” value in assay [1] came to 0.184 µg/mL. The IC50 in assay [3] worked out at 0.167 µg/mL.

B3: humanized anti-human TSLP antibody 101H (antibody, human IgG1, kappa, V domains shown)
VH: QVQLVQSGAEVKKPGASVKVSCKTSGYTFTKYWIQWVRQAPGQGLEWIGEIFPGTGTTYYNEIFKARVTLTVDTSTSTAYMELSSLRSEDTAVYYCARRGDYDVYYALDYWGQGTLVTVSS
VL: EIVLTQSPATLSLSPGERATLSCSANSGVNYIHWYQQKPGQAPRFWIWTTSNLASGVPARFSGSGSGTDFTLTISSLEPEDFAVYYCQQRSSYPFTFGQGTKLEIKR
notes: Humanized, human IgG1 constant region; also called humanized antibody No. 101
The molecule B3 showed an IC50 in assay [3] of 0.185 µg/mL.

The values above are taken from US20240262904A1 (SHANGHAI MABGEEK BIOTECH, published 2024).
